Here are results for 83 variants from the RNAGym collection of RNA variant scans (doi:10.1073/pnas.2313332121).

Fewer inactive variants are shown than the library holds.

The chains are these.
B1: TPR 5TU (parent)
chain: GGAUCUUCUCGAUCUAACAAAAAAGACAAAUCUGCCACAAAGCUUGAGAGCAUCUUCGGAUGCAGAGGCGGCAGCCUUCGGUGGCGCGAUAGCGCCAACGUUCUCAACUAUGACACGCAAAACGCGUGCUCCGUUGAAUGGAGUUUAUCAUG

In this data set the parent is B1. Put plainly: polymerase ribozyme fitness, log enrichment relative to wild type (log ratio); higher = more active; in vitro selection for triplet polymerase activity. Summed up: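 Both subunits of a heterodimeric triplet polymerase ribozyme were given their own mutant library, built by PCR and transcribed. Each library was annealed with a biotinylated primer, the partner subunit and triplets, incubated frozen at −7 °C, and its extended constructs gel-excised, captured on streptavidin beads and amplified by RT-PCR, all in one round done in triplicate. Fitness is the logarithm of genotype enrichment relative to wild-type enrichment, with replicates averaged by inverse-variance weighting. That logarithm is base 2, and Illumina-sequenced genotypes needed ≥10 input reads and ≥1 read per output.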
As for A29C C87G G117A, the “polymerase ribozyme fitness (log ratio)” value was ≤ -4.2. A29C A52G U55A C75G A106U A110G A121U U127A: the “polymerase ribozyme fitness (log ratio)” value was ≤ -4.2. Under C27U G58A C96U C116U C118G U144G stands -0.836; under C27U G59A G67C G86C C99U, ≤ -4.2; under A29C G74C, ≤ -4.2. Next, A28U A30C U53G A64U C118U: ≤ -4.2. As to C27U U31A G48U C85U, the “polymerase ribozyme fitness (log ratio)” value is -2.25.

Consider A28U G50A C85G, for which the “polymerase ribozyme fitness (log ratio)” value was ≤ -4.2.

On to A28U C32U G42C G84A A89G G92A C131A U148A, for which the “polymerase ribozyme fitness (log ratio)” value was ≤ -4.2. Next, A28C A39U C103U C116G U139G: ≤ -4.2. Next, C27U C76A: -2.31; C27U C76U: -1.42; A28U U77C: ≤ -4.2.

On to A28U C32U A39U G58U C87U, for which the “polymerase ribozyme fitness (log ratio)” value is ≤ -4.2.

A28U G50U G59A: the “polymerase ribozyme fitness (log ratio)” value was ≤ -4.2.

Regarding A28G A52U G84A C103A, the “polymerase ribozyme fitness (log ratio)” value is ≤ -4.2.

For the variant A28G A52C U55A G67C C149G, the “polymerase ribozyme fitness (log ratio)” value is ≤ -4.2. Under C27U G83A C95U U102A G126C stands -3.56.

Turning to A28U A29U G65A C95G C105G U111G A137C G152C, the “polymerase ribozyme fitness (log ratio)” value was ≤ -4.2. Under A28U G67U C103A stands ≤ -4.2; under C27U G62U A120C A122U, -2.46; under A28U A64G A66U A73U G81U C95U C114U C149A, ≤ -4.2. Next, C27U C43A C75U C96U C105A: ≤ -4.2; A28G U55G G58C G88C G140U: ≤ -4.2. Next, A28G U44A G83C A147G: ≤ -4.2; C27U G68C A89G C93A A110G G136C: ≤ -4.2. As for A29C A41G A97C A122U, the “polymerase ribozyme fitness (log ratio)” value is ≤ -4.2.

Regarding A28U A52C A97U A137U U139C, the “polymerase ribozyme fitness (log ratio)” value was ≤ -4.2. Next, A29C U44G U55A G68A G71U G80A C93A A98U A138C: ≤ -4.2; A29G A30C G59C U90G C95G G133U: ≤ -4.2. Under A29C G50C C114U stands ≤ -4.2; under A28U A49C C103G, ≤ -4.2; under A29C A40U A41C G84A G141A, ≤ -4.2. Under C27U U55A U56A stands -2.25; under A28C C85A, ≤ -4.2. On to C27U G58A A60G G84U, for which the “polymerase ribozyme fitness (log ratio)” value was -1.42. Under A28G A41C C96A U145G stands ≤ -4.2.

Take C27U G50C C114G: the “polymerase ribozyme fitness (log ratio)” value was ≤ -4.2. Next, A29C A39U C96A: ≤ -4.2; A28U A73U A91G C125A A137C: ≤ -4.2. Next, A28U A66C C72U A91C C114U: ≤ -4.2; A29C G59U G92C C96A A107G C125U U127G: ≤ -4.2; A28G G42U: ≤ -4.2.

As to A29C G58A C87G C93G G133A U145C, the “polymerase ribozyme fitness (log ratio)” value is ≤ -4.2.

For the variant C27U C57A C87A A115U, the “polymerase ribozyme fitness (log ratio)” value is ≤ -4.2.

In the case of A28C A60G C69U G74A U135G A138U G141U, the “polymerase ribozyme fitness (log ratio)” value is ≤ -4.2.

C27U G92U G100A A106C G124C A138G: the “polymerase ribozyme fitness (log ratio)” value is ≤ -4.2. Next, A28U A30C C32A A47C G58C C85U A107U: ≤ -4.2; A28U G83C G92U C96U: ≤ -4.2. Next, A28U A47C U130G: ≤ -4.2; A29G A60G G92C C116G A121G: ≤ -4.2; A28U C79A A91U C108G U130G G143C: ≤ -4.2. Under A28C C35U G124A G141U stands ≤ -4.2; under A28U C76G G92U, ≤ -4.2; under A28U G65U U82G U101G C103A G152U, ≤ -4.2. C27U G58C C87A A107U: the “polymerase ribozyme fitness (log ratio)” value is ≤ -4.2. Next, A29C C36A U55A U61G C87A: ≤ -4.2. For the variant A29C G59A G94U U102A A106G G141A, the “polymerase ribozyme fitness (log ratio)” value is ≤ -4.2. Under A28U U61G C87G stands -4.14; under A29C A52G G83C A106C, ≤ -4.2; under C27U C57A C95U, -2.1.

Consider A28G G94A, for which the “polymerase ribozyme fitness (log ratio)” value is -3.42. Next, A28U C96A: -3.93; A28U C96U: -3.66. Under A28C G42C C76G C79G G86C U90G A97G U145C stands ≤ -4.2; under A28G C43U A113U G117A A138G, ≤ -4.2; under A28G A49G G50A C87G, ≤ -4.2.

For the variant C27U C87A, the “polymerase ribozyme fitness (log ratio)” value is ≤ -4.2.

Consider C27U U33G G68C C69U C76U C95A C103U A110C G133A U139G, for which the “polymerase ribozyme fitness (log ratio)” value was ≤ -4.2. Next, A29C G58A G83A C118U: ≤ -4.2.

On to A29C G92A G143C U146C, for which the “polymerase ribozyme fitness (log ratio)” value is ≤ -4.2. Under A28G U56A G136C stands ≤ -4.2.

In the case of A28U A60C C87A C96U, the “polymerase ribozyme fitness (log ratio)” value is ≤ -4.2. For the variant A28C C69U, the “polymerase ribozyme fitness (log ratio)” value was ≤ -4.2. Next, A28U U53A G81C C95G A107U U139A: ≤ -4.2; C27U C43U C95U A119U G143C U144C: -4.15.

In the case of A28C A73C U78G G86C A110U A113U A137C A138U, the “polymerase ribozyme fitness (log ratio)” value is ≤ -4.2. Under A28U A49U U139G stands ≤ -4.2. As to A28C U61A U134A U148C, the “polymerase ribozyme fitness (log ratio)” value was ≤ -4.2.

For A28G G50C A122G U145C U148A, the “polymerase ribozyme fitness (log ratio)” value is ≤ -4.2. With A28G G80A G141A, the “polymerase ribozyme fitness (log ratio)” value is ≤ -4.2. Under A28G C93U C105G stands ≤ -4.2; under C27U C75A G81A G92A U135A, ≤ -4.2.
